Experiment: yeast display, Sf9 membrane polyspecificity reagent, FACS + sequencing; frameworks hold sequencing errors
Method in brief: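 After 36–48 hours of galactose induction, yeast (Saccharomyces cerevisiae BJ5465) displaying a synthetic nanobody library were stained at 4 °C for 1 hour with 10% biotinylated, detergent-solubilized Sf9 membrane reagent. Streptavidin microbeads enriched the stained cells before FACS sorting into low and high (top ~1%) gates on anti-HA and streptavidin fluorescence. Each clone's polyreactivity label reflects its gate of origin.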

Sequence | polyreactivity (PSR sort gate)
QVRLVESGGGLVQAGCSLRLSCAASGSTFWSYAMGWYRQAPGKERELVAAISWSGDSTYYADSVKGRFTISRDNAKNTVYLQMNSLKPEDSAVYYCAADYTGSFYTYDYWGQGTQVTVSS | low polyreactivity
QVRLVESGGGLVQAGGSLRLSCAASARILPYYPMGWYRQAPGKERELVAAISWSGGRTYYADSVKGRFTISRDNAKNTVYLQMNSLKPEDTAVYYWATRRVTHVPGSSRYDYWGQGTQVTVSS | low polyreactivity
QVRLVESGGGLVQAGGSLRLSCAASGRIFQYYAMGWYRQAPGKERELVASITSGGGSTYYADSVKGRFTISRDNAKNTVYLQMNSLKPEDTAVYYCNARWYGLSTRYDYWGQGTQVTVSS | low polyreactivity
QVRLVESGGGLVQAGGSLRLSCAASGRTFTHNVMGWYRQAPGKERELVAGISSTGGSTYYADSVKVRFTISRDNAKNTVYLQMNSRKPEDPAVYYCNADYASYYRYSRPLEMNYWGQGTQVTVSS | low polyreactivity
QVRLVESGGGLVQAGGSLRLSCAASGSTFYPYDMGWYRQAPGKERELVATISSGVSTNYADSVKGRFTISRDNAKNTVYLQMNSLKPEDTAVYYCAVDYFIGDDDYWGQGTQVTVSS | low polyreactivity
QVTLVESGGGLVQAGGSLRLSCAASGSIRGYALGWSRQPPGKDRALVAAMSWRGGSTYYADSVKGRFTISRDNAKNTVYLQMNSLKPEETAVYYCAVEYVYWLSWYFQYDYWGQGTQVTVSS | low polyreactivity
QYQLVESGGGLVHEGGSLSLRCAASGSNLYYYAMGWYRKAPGKERDLDAAITYSGGNTYYADSVKGRFTISRDNAKNNVYLQMNSLKPEDTAVYYCAADDWSSDYIRYEYWGQGTQVTVSS | low polyreactivity
RVHLVESGGGLVQAGGSLRLSCAASGRIFDNYVMGWYRQAPGKESELVAAISSGGGTYYADSVKGRFTISRDNAKNTVYLQMKSLKPEDTAVYFCAKRRVFDRSFGRYDYWGQGTQVTVSS | low polyreactivity
RVQLVESGGGLVQAGGSLRLSCAASGRIFSYKAMGWYRQAPGKERELVAAITFSGGGTYYADSVKGRFTISRDNAKNPVYLQMNSLKPEDTAVYYCNKVSYGYSSYGYWGQGTQVTVSS | low polyreactivity
RVQLVESGGGLVQAGGSLRLSCAASGRTFVNYAMGWYRQAPGKEREFVAAITNGGRTNYADSVKGRFTISRDNAKNTVYLQMNSLQPEETEVYYCAARYRFGGIRRYNYWGQGTQVTVSS | high polyreactivity
RVQLVESGGGLVQAGGSLRLSCAASGSTFENYAMGWYRQAPGKERELVAAISSGGSTYYADSVKGRFTISRDNAKNTVYLQMNSLKPEDTAVYYCAAELEYWLYGYGYYYWGQGTQVTVSS | high polyreactivity
RYADSVKGRFTISRDNAKNTDYLQMNSLKPEDTAVYYCAAKGPEPPSLDESDYWGQVTQVTVSS | low polyreactivity
